The results in this text go back to US20130039923A1 (Novo Nordisk, published 2013).

Ends that are not written are not given here.

The target in test [1] is T1, hIL20 peptide 1 (residues 18-37 of SEQ ID NO: 1) (N-terminal biotin).
T1 peptide: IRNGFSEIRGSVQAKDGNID
Briefly: SPR, biotinylated peptide on streptavidin chip (500 RU), antibody injected. Background: Surface plasmon resonance follows binding to a sensor surface in real time, without labels.

Test [2] concerns the target T2, hIL20 peptide 2 (residues 28-47 of SEQ ID NO: 1) (N-terminal biotin).
T2 peptide: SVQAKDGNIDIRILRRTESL
The description is as above.

Test [3] deals with T3, hIL20 peptide 3 (residues 38-57 of SEQ ID NO. 1) (N-terminal biotin).
T3 peptide: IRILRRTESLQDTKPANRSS
The test is described as above.

The target of test [4] is T4, hIL20 peptide 4 (residues 48-67 of SEQ ID NO. 1) (N-terminal biotin).
T4 peptide: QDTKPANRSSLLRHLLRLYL
The description is as above.

Test [5] deals with T5, hIL20 peptide 5 (residues 58-78 of SEQ ID NO: 1) (N-terminal biotin).
T5 peptide: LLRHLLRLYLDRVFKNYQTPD
Described as above.

Test [6] concerns the target T6, Peptide no. 44 (Figure 8A).
T6 construct: Ala-scan peptide on the array; also called Peptide no; D78A
T6 peptide: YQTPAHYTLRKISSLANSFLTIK
Briefly: Ala-scan peptide array of hIL20 74-96 on cellulose; fluorescein-labelled antibody; fluorescence as OD.

For test [7], the target named is T7, Peptide no. 47 (Figure 8A).
T7 construct: Ala-scan peptide on the array; also called Peptide no; T81A
T7 peptide: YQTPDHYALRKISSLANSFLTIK
Described as above.

Test [8] deals with T8, Peptide no. 50 (Figure 8A).
T8 construct: Ala-scan peptide on the array; also called Peptide no; K84A
T8 peptide: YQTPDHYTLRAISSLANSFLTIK
The test is described as above.

Test [9] addresses T9, Peptide no. 52 (Figure 8A).
T9 construct: Ala-scan peptide on the array; also called Peptide no; S86A
T9 peptide: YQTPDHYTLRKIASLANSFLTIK
The description is as above.

Test [10] concerns the target T10, Peptide no. 59 (Figure 8A).
T10 construct: Ala-scan peptide on the array; also called Peptide no; T94A
T10 peptide: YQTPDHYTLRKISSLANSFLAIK
The test is described as above.

Test [11] has as its target T11, Peptide no. 86 (Figure 6A).
T11 construct: also called Peptide no
T11 peptide: NYQTPDHYTLRKISSLAN
Briefly: 18mer hIL20 peptide array on cellulose, 4 residue walk; fluorescein-labelled antibody; fluorescence as OD.

In test [12] the target is T12, Peptide no. 87 (Figure 6A).
T12 construct: also called Peptide no
T12 peptide: PDHYTLRKISSLANSFLT
The description is as above.

The target of test [13] is T13, Peptide no. 2 (Figures 7A, 7B) (N-terminus acylated).
T13 construct: peptide array on cellulose
T13 peptide: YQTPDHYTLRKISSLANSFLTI
Briefly: array of terminally truncated, acylated hIL20 peptides on cellulose; fluorescein-labelled antibody; fluorescence as OD.

Test [14] deals with T14, Peptide no. 3 (Figures 7A, 7B) (N-terminus acylated).
T14 construct: peptide array on cellulose
T14 peptide: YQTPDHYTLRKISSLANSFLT
The description is as above.

For test [15], the target named is T15, Peptide no. 4 (Figures 7A, 7B) (N-terminus acylated).
T15 construct: peptide array on cellulose
T15 peptide: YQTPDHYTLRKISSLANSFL
The description is as above.

Test [16] has as its target T16, Peptide no. 5 (Figures 7A, 7B) (also: N-terminus acylated).
T16 construct: peptide array on cellulose
T16 peptide: YQTPDHYTLRKISSLANSF
The test is described as above.

Test [17] has as its target T17, Peptide no. 6 (Figures 7A, 7B) (also: N-terminus acylated).
T17 construct: peptide array on cellulose
T17 peptide: YQTPDHYTLRKISSLANS
The description is as above.

Test [18] has as its target T18, Peptide no. 7 (Figures 7A, 7B) (also: N-terminus acylated).
T18 construct: peptide array on cellulose
T18 peptide: YQTPDHYTLRKISSLAN
Described as above.

Test [19] deals with T19, Peptide no. 13 (Figures 7A, 7B) (N-terminus acylated).
T19 construct: peptide array on cellulose
T19 peptide: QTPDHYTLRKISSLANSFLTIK
Described as above.

Test [20] has as its target T20, Peptide no. 14 (Figures 7A, 7B) (N-terminus acylated).
T20 construct: peptide array on cellulose
T20 peptide: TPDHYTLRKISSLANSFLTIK
Described as above.

The target in test [21] is T21, Peptide no. 15 (Figures 7A, 7B) (N-terminus acylated).
T21 construct: peptide array on cellulose
T21 peptide: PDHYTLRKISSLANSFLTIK
The description is as above.

The target in test [22] is T22, Peptide no. 17 (Figures 7A, 7B) (also: N-terminus acylated).
T22 construct: peptide array on cellulose
T22 peptide: HYTLRKISSLANSFLTIK
Described as above.

For test [23], the target named is T23, Peptide no. 1 (Figures 7A, 7B) (N-terminus acylated).
T23 construct: peptide array on cellulose
T23 peptide: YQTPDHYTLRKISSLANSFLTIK
The description is as above.

B1: human anti-hIL20 monoclonal antibody 15D2 (antibody, V domains shown)
VH: QVQLVQSGAEVKRPGASVKVSCKASGYTFTNDIIHWVRQAPGQRLEWMGWINAGYGNTQYSQNFQDRVSITRDTSASTAYMELISLRSEDTAVYYCAREPLWFGESSPHDYYGMDVWGQGTTVTVSS
VL: AIQLTQSPSSLSASVGDRVTITCRASQGISSALAWYQQKPGKAPKLLIYDASSLESGVPSRFSGSGSGTDFTLTISSLQPEDFATYYCQQFNSYPLTFGGGTKVEIKR
notes: also called 15D2-wt; 15D2 wild-type
Regarding B1, the binding result in test [1] is “no binding (tested: 5 µg/ml)”; in [2] it was “no binding (tested: 5 µg/ml)”; in test [3] it was “no binding (tested: 5 µg/ml)”; in test [4] it was “no binding (tested: 5 µg/ml)”; in test [5], “no binding (tested: 5 µg/ml)”; in test [6], “binds”. The binding result in test [7], in [8], in [9], in test [10], in test [11] and in [12] was “binds” each time. The binding result in test [13], in test [14], in [15], in test [16], in [17] and in test [18] was “binds” in each case. Also, the binding result in [19], in test [20], in test [21], in [22] and in test [23] was “binds” throughout.
